Experimental data: patent US20220184172

Tests used:
[1] = tested on: recombinant Caspase-6 (Origene, Cat. TP760261)
[2] = tested on: T1, recombinant Bid (R&D Systems, Cat. 846-BD-50)
T1 sequence: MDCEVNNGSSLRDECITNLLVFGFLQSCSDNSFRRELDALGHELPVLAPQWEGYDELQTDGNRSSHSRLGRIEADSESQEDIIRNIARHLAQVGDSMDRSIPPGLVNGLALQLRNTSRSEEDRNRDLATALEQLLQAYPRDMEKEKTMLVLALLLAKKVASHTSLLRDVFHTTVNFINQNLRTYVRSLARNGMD

[3] = tested on: purified Bax-HA expressed in HEK293T cells
[4] = tested on: purified Bid-HA expressed in HEK293T cells
[5] = tested on: purified caspase-6-myc expressed in HEK293T cells

Chain of recombinant AMPKα1β1γ1 active kinase (Q13131 whole entry): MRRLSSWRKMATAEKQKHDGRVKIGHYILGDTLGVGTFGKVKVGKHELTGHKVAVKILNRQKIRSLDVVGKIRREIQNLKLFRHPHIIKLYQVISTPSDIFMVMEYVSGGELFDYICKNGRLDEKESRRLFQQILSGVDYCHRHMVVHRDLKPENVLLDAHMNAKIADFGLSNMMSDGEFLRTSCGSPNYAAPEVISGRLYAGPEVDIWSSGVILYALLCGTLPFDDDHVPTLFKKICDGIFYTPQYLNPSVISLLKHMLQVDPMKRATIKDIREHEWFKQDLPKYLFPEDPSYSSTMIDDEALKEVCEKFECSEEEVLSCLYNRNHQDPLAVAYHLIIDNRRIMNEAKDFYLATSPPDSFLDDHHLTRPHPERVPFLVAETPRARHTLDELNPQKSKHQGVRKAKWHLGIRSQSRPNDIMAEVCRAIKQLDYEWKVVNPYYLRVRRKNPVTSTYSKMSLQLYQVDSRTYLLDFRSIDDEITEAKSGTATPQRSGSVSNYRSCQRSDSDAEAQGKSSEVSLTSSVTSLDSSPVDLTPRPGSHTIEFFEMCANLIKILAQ
Chain of recombinant AMPKα1β1γ1 active kinase (Q9Y478 2-270, further chain): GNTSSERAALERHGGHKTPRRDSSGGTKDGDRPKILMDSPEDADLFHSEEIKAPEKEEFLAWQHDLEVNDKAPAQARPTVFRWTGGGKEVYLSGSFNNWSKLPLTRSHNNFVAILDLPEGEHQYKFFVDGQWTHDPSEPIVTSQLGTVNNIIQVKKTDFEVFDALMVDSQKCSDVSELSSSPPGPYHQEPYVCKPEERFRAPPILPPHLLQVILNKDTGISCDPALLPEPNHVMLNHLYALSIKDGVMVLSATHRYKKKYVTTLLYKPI
Chain of recombinant AMPKα1β1γ1 active kinase (P54619 whole entry, further chain): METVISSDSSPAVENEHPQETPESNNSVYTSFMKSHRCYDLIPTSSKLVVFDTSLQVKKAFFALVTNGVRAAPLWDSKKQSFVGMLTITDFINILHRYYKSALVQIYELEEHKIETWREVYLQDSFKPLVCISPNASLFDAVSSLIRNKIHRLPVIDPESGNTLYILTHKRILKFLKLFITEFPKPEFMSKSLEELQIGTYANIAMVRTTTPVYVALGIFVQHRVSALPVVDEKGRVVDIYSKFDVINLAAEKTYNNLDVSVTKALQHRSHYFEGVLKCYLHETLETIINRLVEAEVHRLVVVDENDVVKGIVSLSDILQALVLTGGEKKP
Chain of recombinant AMPKα2β1γ1 active kinase (P54646 whole entry): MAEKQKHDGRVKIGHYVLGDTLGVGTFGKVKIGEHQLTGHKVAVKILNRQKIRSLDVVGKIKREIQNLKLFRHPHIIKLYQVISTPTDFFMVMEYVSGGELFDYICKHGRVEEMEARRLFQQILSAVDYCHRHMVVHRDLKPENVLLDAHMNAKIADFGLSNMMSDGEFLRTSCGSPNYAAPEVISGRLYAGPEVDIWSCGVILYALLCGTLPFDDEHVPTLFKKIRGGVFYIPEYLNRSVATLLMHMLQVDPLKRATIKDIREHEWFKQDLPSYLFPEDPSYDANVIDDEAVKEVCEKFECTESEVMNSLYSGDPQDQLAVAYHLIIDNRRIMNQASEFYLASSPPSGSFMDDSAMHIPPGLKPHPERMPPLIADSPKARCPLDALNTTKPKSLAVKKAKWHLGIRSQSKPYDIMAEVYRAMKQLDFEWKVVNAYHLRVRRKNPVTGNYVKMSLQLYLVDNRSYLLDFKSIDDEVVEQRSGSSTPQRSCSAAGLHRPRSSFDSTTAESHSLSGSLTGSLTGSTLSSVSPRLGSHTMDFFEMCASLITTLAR
Chain of recombinant AMPKα2β1γ1 active kinase (Q9Y478 2-270, further chain): as the sequence (Q9Y478 2-270, further chain) above
Chain of recombinant AMPKα2β1γ1 active kinase (P54619 whole entry, further chain): as the sequence (P54619 whole entry, further chain) above

active caspase-3
in vitro cleavage assay [1]: procaspase-6 was directly cleaved by caspase-3 and -7, but not caspase-8 or -9

active caspase-6
in vitro cleavage assay [2]: Active caspase-6 cleaves Bid to generate two cleaved peptide fragments
in vitro cleavage assay [3]: active caspase-6 cleaved purified Bcl2 family protein Bid (BH3 interacting-domain death agonist), but not Bax (Bcl2 associated X) in vitro
in vitro cleavage assay [4]: active caspase-6 cleaved purified Bcl2 family protein Bid (BH3 interacting-domain death agonist), but not Bax (Bcl2 associated X) in vitro

recombinant AMPKα2β1γ1 active kinase
in vitro kinase assay, phosphorylation of Ser257 [1]: Both recombinant AMPKα1 and AMPKα2 directly phosphorylated procaspase-6 at Ser^257 in vitro

active caspase-8
in vitro cleavage assay [1]: procaspase-6 was directly cleaved by caspase-3 and -7, but not caspase-8 or -9

recombinant AMPKα1β1γ1 active kinase
in vitro kinase assay, phosphorylation of Ser257 (FIG. 15C) [5]: Both recombinant AMPKα1 and AMPKα2 directly phosphorylated procaspase-6 at Ser^257 in vitro
in vitro kinase assay, phosphorylation of Ser257 [1]: Both recombinant AMPKα1 and AMPKα2 directly phosphorylated procaspase-6 at Ser^257 in vitro

active caspase-7
in vitro cleavage assay [1]: procaspase-6 was directly cleaved by caspase-3 and -7, but not caspase-8 or -9

active caspase-9
in vitro cleavage assay [1]: procaspase-6 was directly cleaved by caspase-3 and -7, but not caspase-8 or -9
